In one assay the target is T1, His-TRAF6_(310-522) (human, UniProt Q9Y4K3 310-522).
T1 construct: also called His-T6; recombinant TRAF6 wild-type; source: E. coli BL21 Codon Plus RIPL, purified (Ni-NTA)
T1 sequence: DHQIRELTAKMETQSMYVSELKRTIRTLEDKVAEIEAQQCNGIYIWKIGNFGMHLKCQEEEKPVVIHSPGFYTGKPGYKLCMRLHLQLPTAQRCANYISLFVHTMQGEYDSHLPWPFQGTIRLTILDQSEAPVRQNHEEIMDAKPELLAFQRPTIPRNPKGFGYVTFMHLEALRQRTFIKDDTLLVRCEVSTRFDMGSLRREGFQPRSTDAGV
The experiment in a line: AlphaScreen or HTRF; AlphaScreen PPI assay: His-TRAF and GST-LMP1, GST-CD40 or GST-RANK in PBS with 0.5% BSA and 0.1% Tween-20, 1 h at RT; standard 300 nM His-TRAF and 100 nM GST protein if not indicated otherwise; for KD His-TRAF6 at different concentrations, fit one site-specific binding with hill slope. The settings on record: both partners purified.

For another assay, the system named is HA-LMP1. Briefly: Confocal immunofluorescence colocalization of Flag-TRAF6 with HA-LMP1 in HeLa cells. The settings on record: mean of ten cells. Format: cell-based, Epstein-Barr virus. The protocol: HeLa cells were seeded onto cover glasses (Thermo Scientific, Menzel) in 24-well plates one day before transfection. Cells were transfected at 50–60% confluency with 50 ng of pCMV-HA-LMP1 plasmids and 100 ng of pRK5-Flag-TRAF6 plasmids, adjusted to a total of 500 ng DNA per sample with pRK5 empty vector, using Lipofectamine 2000 (Thermo Fisher Scientific) according to the manufacturer’s instructions. At 24 h posttransfection, cells were washed once with PBS and fixed with 4% paraformaldehyde (Sigma-Aldrich) for 20 min at RT, followed by permeabilization with 0.3% (v/v) Triton X-100 and blocking with 5% (v/v) FBS in PBS for 1 h at RT. For immunostaining, the cells were incubated overnight with the primary antibodies α-HA (1:1000, clone 16B12, BioLegend) and α-DYKDDDDK (1:1000, clone L5, BioLegend) at 4 °C. The secondary antibodies goat α-mouse Alexa 488 (1:500, cross-adsorbed, Invitrogen, #A-11029) and goat α-rat Alexa 555 (1:500, cross-adsorbed, Invitrogen, #A-21434) were added for 1.5 h at RT. Microscope slides were sealed with cover glasses using Mowiol mounting medium (Sigma-Aldrich). Nuclei were stained with Hoechst 33258 (Sigma-Aldrich). All samples were imaged using a Leica TCS SP5 confocal microscope with 405 nm, 488 nm, 543 nm or 633 nm laser lines, scanning each channel separately under image capture conditions that eliminated channel overlap. For each single experiment, 10 transfected cells positive for both constructs were randomly captured as single-cell images for quantification. The resulting images were then analyzed using the Leica TCS SP5 colocalization analyses application (LAS AF Version 2.7.3.9723). Analysis was performed with default parameters.

Experimental findings from article PMC10776578, “Epstein-Barr virus-driven B cell lymphoma mediated by a direct LMP1-TRAF6 complex” (Nature Communications, 2024) are described below.

B1: GST-LMP1_(181-386) A204xAxA (domain or fragment)
chain: LIWMYYHGQRHSDEHHHDDSLPHAQAAADDSGHESDSNSNEGRHHLLVSGAGDGPPLCSQNLGAPGGGPDNGPQDPDNTDDNGPQDPDNTDDNGPHDPLPQDPDNTDDNGPQDPDNTDDNGPHDPLPHSPSDSAGNDGGPPQLTEEVENKGGDQGPPLMTDGGGGHSHDSGHGGGDPHLPTLLLGSSGSGGDDDDPHGPVQLSYYD
notes: also called A204xAxA mutant; CTAR1 mutant; source: E. coli DH5α or BL21 Codon Plus RIPL, purified (glutathione Sepharose 4B)
As for B1, the binding result in the assay with His-TRAF6_(310-522) is on record as “binds”.

B2: GST-LMP1_(181-386) S383A (domain or fragment)
chain: LIWMYYHGQRHSDEHHHDDSLPHPQQATDDSGHESDSNSNEGRHHLLVSGAGDGPPLCSQNLGAPGGGPDNGPQDPDNTDDNGPQDPDNTDDNGPHDPLPQDPDNTDDNGPQDPDNTDDNGPHDPLPHSPSDSAGNDGGPPQLTEEVENKGGDQGPPLMTDGGGGHSHDSGHGGGDPHLPTLLLGSSGSGGDDDDPHGPVQLAYYD
notes: source: E. coli DH5α or BL21 Codon Plus RIPL, purified (glutathione Sepharose 4B)
Turning to B2, the binding result with His-TRAF6_(310-522) is reported as “binds”.

B3: GST-RANK_(314-355) (domain or fragment)
chain: GGGPYAQGEDARMLSLVSKTEIEEDSFRQMPTEDEYMDRPSQ
notes: also called TRANCE receptor; source: E. coli DH5α or BL21 Codon Plus RIPL, purified (glutathione Sepharose 4B)
As to B3, binding with His-TRAF6_(310-522) was put at a Kd of 7.7 nM.

B4: GST-LMP1_(181-386) Y385A (domain or fragment)
chain: LIWMYYHGQRHSDEHHHDDSLPHPQQATDDSGHESDSNSNEGRHHLLVSGAGDGPPLCSQNLGAPGGGPDNGPQDPDNTDDNGPQDPDNTDDNGPHDPLPQDPDNTDDNGPQDPDNTDDNGPHDPLPHSPSDSAGNDGGPPQLTEEVENKGGDQGPPLMTDGGGGHSHDSGHGGGDPHLPTLLLGSSGSGGDDDDPHGPVQLSYAD
notes: also called mutation of Y385 (alanine scan); source: E. coli DH5α or BL21 Codon Plus RIPL, purified (glutathione Sepharose 4B)
For the molecule B4, the binding result with His-TRAF6_(310-522) is on record as “binds”.

B5: GST-LMP1_(181-386) Y384F (domain or fragment)
chain: LIWMYYHGQRHSDEHHHDDSLPHPQQATDDSGHESDSNSNEGRHHLLVSGAGDGPPLCSQNLGAPGGGPDNGPQDPDNTDDNGPQDPDNTDDNGPHDPLPQDPDNTDDNGPQDPDNTDDNGPHDPLPHSPSDSAGNDGGPPQLTEEVENKGGDQGPPLMTDGGGGHSHDSGHGGGDPHLPTLLLGSSGSGGDDDDPHGPVQLSFYD
notes: also called LMP1 Y384F; source: E. coli DH5α or BL21 Codon Plus RIPL, purified (glutathione Sepharose 4B)
On to B5, for which the binding result in the assay with His-TRAF6_(310-522) is “binds”.

B6: GST-LMP1_(181-386) L382A (domain or fragment)
chain: LIWMYYHGQRHSDEHHHDDSLPHPQQATDDSGHESDSNSNEGRHHLLVSGAGDGPPLCSQNLGAPGGGPDNGPQDPDNTDDNGPQDPDNTDDNGPHDPLPQDPDNTDDNGPQDPDNTDDNGPHDPLPHSPSDSAGNDGGPPQLTEEVENKGGDQGPPLMTDGGGGHSHDSGHGGGDPHLPTLLLGSSGSGGDDDDPHGPVQASYYD
notes: as for B2
Consider B6, for which, in the assay with His-TRAF6_(310-522), the binding result is reported as “binds”.

B7: GST-LMP1_(181-386) Q381E (domain or fragment)
chain: LIWMYYHGQRHSDEHHHDDSLPHPQQATDDSGHESDSNSNEGRHHLLVSGAGDGPPLCSQNLGAPGGGPDNGPQDPDNTDDNGPQDPDNTDDNGPHDPLPQDPDNTDDNGPQDPDNTDDNGPHDPLPHSPSDSAGNDGGPPQLTEEVENKGGDQGPPLMTDGGGGHSHDSGHGGGDPHLPTLLLGSSGSGGDDDDPHGPVELSYYD
notes: also called LMP1 Q381E; source: E. coli DH5α or BL21 Codon Plus RIPL, purified (glutathione Sepharose 4B)
B7: binding with His-TRAF6_(310-522) was put at a Kd of 14.7 nM.

B8: GST-LMP1_(181-386) G378A (domain or fragment)
chain: LIWMYYHGQRHSDEHHHDDSLPHPQQATDDSGHESDSNSNEGRHHLLVSGAGDGPPLCSQNLGAPGGGPDNGPQDPDNTDDNGPQDPDNTDDNGPHDPLPQDPDNTDDNGPQDPDNTDDNGPHDPLPHSPSDSAGNDGGPPQLTEEVENKGGDQGPPLMTDGGGGHSHDSGHGGGDPHLPTLLLGSSGSGGDDDDPHAPVQLSYYD
notes: as for B2
Take B8: the binding result in the assay with His-TRAF6_(310-522) was “binds”.

B9: 371-T6wt: TRAF6 wild-type coexpressed with LMP1Δ371-386 (protein, UniProt Q9Y4K3 1-522, looked up)
TNF receptor-associated …: MSLLNCENSCGSSQSESDCCVAMASSCSAVTKDDSVGGTASTGNLSSSFMEEIQGYDVEFDPPLESKYECPICLMALREAVQTPCGHRFCKACIIKSIRDAGHKCPVDNEILLENQLFPDNFAKREILSLMVKCPNEGCLHKMELRHLEDHQAHCEFALMDCPQCQRPFQKFHINIHILKDCPRRQVSCDNCAASMAFEDKEIHDQNCPLANVICEYCNTILIREQMPNHYDLDCPTAPIPCTFSTFGCHEKMQRNHLARHLQENTQSHMRMLAQAVHSLSVIPDSGYISEVRNFQETIHQLEGRLVRQDHQIRELTAKMETQSMYVSELKRTIRTLEDKVAEIEAQQCNGIYIWKIGNFGMHLKCQEEEKPVVIHSPGFYTGKPGYKLCMRLHLQLPTAQRCANYISLFVHTMQGEYDSHLPWPFQGTIRLTILDQSEAPVRQNHEEIMDAKPELLAFQRPTIPRNPKGFGYVTFMHLEALRQRTFIKDDTLLVRCEVSTRFDMGSLRREGFQPRSTDAGV
For the molecule B9, in the assay with HA-LMP1, the “colocalization of TRAF6 with LMP1, mean” value is recorded as 32.37.
